{"source": "paper PMC6363164", "about": "“Structural basis of human ORP1-Rab7 interaction for the late-endosome and lysosome targeting” (PLoS ONE, 2019)", "settings_in_all_cases": "both partners purified", "key": {"[1]": {"biological_target": "T1, human Rab7 (residue 2-195) T22N, GDP-loaded (human, UniProt P51149 2-195, T22N)", "T1 construct": "Ras-related protein Rab-7a, human, UniProt P51149, residues 2-195, dominant negative mutant T22N; Loaded with 0.5 mM GDP for ITC; also called Rab7 T22N; dominant negative Rab7; source: E. coli BL21(DE3), purified (Ni-NTA, SEC)", "T1 sequence (P51149 2-195 T22N)": "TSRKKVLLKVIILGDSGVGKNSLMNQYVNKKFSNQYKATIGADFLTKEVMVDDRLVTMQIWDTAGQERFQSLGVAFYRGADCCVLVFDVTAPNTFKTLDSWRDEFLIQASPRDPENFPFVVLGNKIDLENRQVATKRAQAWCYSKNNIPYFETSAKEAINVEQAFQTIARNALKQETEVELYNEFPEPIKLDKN", "test": "ITC; 20 °C; 20 mM Tris-HCl pH 7.5, 150 mM NaCl; 1 mM ORP1 ANK in the syringe, 0.1 mM Rab7 or Rab7-RILP in the cell; Rab7 Q67L with 0.5 mM GTP, Rab7 T22N with 0.5 mM GDP; independent binding model"}, "[2]": {"biological_target": "T2, human Rab7 (residue 2-195) Q67L, GTP-loaded (human, UniProt P51149 2-195, Q67L)", "T2 construct": "Ras-related protein Rab-7a, human, UniProt P51149, residues 2-195, dominant active mutant Q67L; Loaded with 0.5 mM GTP for ITC; also called Rab7 Q67L; dominant active Rab7; source: E. coli BL21(DE3), purified (Ni-NTA, SEC)", "T2 sequence (P51149 2-195 Q67L)": "as the sequence (P51149 2-195 T22N) above, with N21T, Q66L counted along it", "test": "ITC; 20 °C; 20 mM Tris-HCl pH 7.5, 150 mM NaCl; 1 mM ORP1 ANK in the syringe, 0.1 mM Rab7 or Rab7-RILP in the cell; Rab7 Q67L with 0.5 mM GTP, Rab7 T22N with 0.5 mM GDP; independent binding model"}, "[3]": {"biological_target": "T3, human Rab7 (residue 2-195) Q67L Δ73, GTP-bound (human, UniProt P51149 2-195, Q67L | Δ73)", "T3 construct": "Ras-related protein Rab-7a, human, UniProt P51149, residues 2-195, Q67L and deletion of Leu73 in switch II; 0.5 mM MgCl2 and GTP were added before crystallisation; also called Rab7 Q67L Δ73; Rab7 (Q67L, Δ73); source: E. coli BL21(DE3), purified (Ni-NTA, SEC)", "T3 sequence (P51149 other isoform, or with tags, fused parts or gaps Q67L | Δ73 | Q67L | Δ73 | Q67L Q67L)": "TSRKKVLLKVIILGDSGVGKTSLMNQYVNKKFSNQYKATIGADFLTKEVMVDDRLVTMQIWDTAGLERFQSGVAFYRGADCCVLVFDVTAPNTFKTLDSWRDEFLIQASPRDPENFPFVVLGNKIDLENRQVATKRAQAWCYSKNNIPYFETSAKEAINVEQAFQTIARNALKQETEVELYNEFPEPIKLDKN", "test": "crystal structure; ORP1 ANK (5-152) with GTP- and Mg2+-bound Rab7 (2-195) Q67L Δ73; 2.1 Å; two heterodimers in the asymmetric unit"}}, "data": [{"binder": "human ORP1 ANK domain (residue 5-152) (domain or fragment, UniProt Q9BXW6-1 5-152, looked up, The His tag was cut off with thrombin (site LVPR/GS); A longer ANK construct (5-233) was also cloned; also called small ORP1 ANK construct; source: E. coli BL21(DE3), purified (Ni-NTA, SEC); not shown: His6, N-terminal, cleaved) AEQQLLHHARNGNAEEVRQLLETMARNEVIADINCKGRSKSNLGWTPLHLACYFGHRQVVQDLLKAGAEVNVLNDMGDTPLHRAAFTGRKELVMLLLEYNADTTIVNGSGQTAKEVTHAEEIRSMLEAVERTQQRKLEELLLAAAREG", "values": [{"measurement": "binding result", "setting": "[1]", "result": "binds"}, {"measurement": "Kd", "setting": "[2]", "result": 9.3, "unit": "µM"}, {"measurement": "stoichiometry N", "setting": "[2]", "result": 1}, {"measurement": "binding result", "setting": "[3]", "result": "binds"}]}]}
